{
  "source": "patent US12723255B2",
  "about": "“Herbicide tolerance genes and methods of use thereof” (priority 2014, dated 2026)",
  "key": {"[1]": {"format": "physicochemical", "experimental": "A protein melting analysis was also conducted. For the protein melting determinations, purified enzyme was added to 96-well microtiter plates in standard storage buffer (30 mM Tris pH7.5, 150 mM NaCl) with or without 50 uM Fe2+ and 1.0 mM aKG. Protein unfolding was then detected with SYPRO® orange protein gel stain (Invitrogen™ catalog #S6651, Life Technologies, Grand Island, NY) in a BioRad CFX96™ Real time PCR machine (BioRad, Hercules, CA) with readings taken between 10° C. to 95° C. in 0.5° C. steps. […] In contrast, 50 uM Fe2+ and 1.0 mM aKG had little effect on the stability of any of the engineered proteins. MON-HT55, MON-HT3, MON-HT4, MON-HT6, and MON-HT10 had melting temperatures in the range of 41° C. to 48° C., which is below the melting temperature of the wild-type enzyme. MON-HT1, MON-HT2, MON-HT5, MON-HT7, MON-HT8, and MON-HT9 had melting temperatures between 58° C. and 67° C., which is 8° C. to 17° C. higher than the wild-type enzyme. For MON-HT7 and MON-HT1, the difference in melting point was 11° C. in buffer without Fe2+ and aKG and 8° C. in buffer with Fe2+ and aKG. This was surprising since there are only four amino acid differences between the two enzymes.\nA protein melting analysis was conducted as detailed above. The melting temperatures of MON-HT13, MON-HT15, and MON-HT17 was similar to the melting temperature of MON-HT1 with T1/2 in buffer in the range of 55-58° C., and with T1/2 in buffer plus Fe2+ and aKG in the range of 60-62° C."}, "[2]": {"test": "kinetic analysis, non-endpoint assay at 23° C.", "format": "biochemical", "text": "For the fifth screen, recombinant protein for each of the eleven engineered proteins was produced and purified for an in-depth biochemical analysis. This biochemical analysis included: (1) kinetic analysis (Vmax and Km), (2) activity assays over a range of temperatures, (3) protein melting analysis, (4) activity on additional AOPP herbicides substrates, and (5) mass spectrometry analysis on peptides to confirm identity. The biochemical analyses were also done with purified recombinant wild-type protein and MON-HT55 protein for comparison. For the kinetic analysis, a non-endpoint assay was conducted at 23° C. with either quizalofop-P or 2,4-D as substrate. The recombinant proteins for these assays were produced in bacteria and purified using a 6-His tag fused at the C-terminal end of the protein. Results of the kinetic analysis with either quizalofop-P or 2,4-D as substrate are presented for ten of the engineered proteins, wild-type protein, and MON-HT55 protein in Table 7 (standard error is shown in parenthetical). Vmax is expressed as specific activity, umol herbicide product mg enzyme-1 min-1; Km expressed as mM herbicide substrate. […] The differentiation of the protein kinetics for MON-HTI and MON-HT7 were surprising because there are only four amino acid differences between MON-HT1 and MON-HT7. Specifically, MON-HT1 has the following amino acids at the indicated position: 182; F105; T112; and V273, and MON-HT7 has the following amino acids at the indicated position: L82; V105; S112; and A273.\nKinetic analysis using a non-endpoint assay was conducted at 23° C. with either quizalofop-P or 2,4-D as substrate, as detailed above for purified protein of the wild-type enzyme, MON-HT1, MON-HT13, MON-HT15, and MON-HT17."}, "[3]": {"format": "biochemical", "details": "substrate quizalofop-P", "experimental": "To analyze these engineered proteins for activity in higher temperatures, the in vitro enzyme assay in Example 1 was modified to specify pre-heating all of the assay components to the desired temperature for 5 minutes before combining the components and then maintaining the reaction at the desired temperature for the duration of the reaction. To normalize the assay measurements, quizalofop-P was used as the substrate for the reaction and enzyme activity was normalized based on the 25° C. readings. Using these parameters, the temperature at which the enzyme activity was half of maximum (T1/2) was calculated. The T1/2 for MON-HT55 was calculated to be 29° C., and the T1/2 for wild-type RdpA was calculated to be 38° C. (FIG. 2A).\nEnzyme activity over a range of temperatures was analyzed in-depth for MON-HT1, MON-HT2, MON-HT7, and MON-HT8. These assays were conducted as described above. Quizalofop-P or 2,4-D was used as the substrate for these reactions and activity was normalized based on the activity of the wild-type enzyme at 25° C. The activity curves obtained are presented in FIG. 2B (with quizalofop-P as the substrate) and FIG. 2C (with 2,4-D as the substrate). Using quizalofop-P as the substrate, MON-HT55 was the most temperature sensitive, with a T1/2 of 29° C. […] MON-HTI was slightly less temperature sensitive, with a T1/2 about 1° C. higher than the wild-type enzyme."}, "[4]": {"test": "enzyme activity assay at 23° C. with purified enzyme", "format": "biochemical", "details": "wild-type set at 100%", "experimental": "The enzyme activity of MON-HT protein variants with haloxyfop, fenoxaprop, fluazifop, and dichlorprop as substrates was determined using the enzyme activity assay conducted at 23° C. with purified enzyme. The activity was recorded as the maximum activity as a percentage of the wild-type enzyme's activity, which was set at 100%."}, "[5]": {"test": "enzyme activity assay at 23° C. with purified enzyme", "format": "biochemical", "details": "percentage of wild-type RdpA, set at 100%", "experimental": "The enzyme activity of MON-HT protein variants with triclopyr, fluroxypyr, MCPA, MCPB, mecoprop, as substrates was determined using the enzyme activity assay conducted at 23° C. with purified enzyme. The activity was recorded as the maximum activity as a percentage of the wild-type RdpA enzyme's activity, which was set at 100%. […] The enzymatic activity with mecoprop as a substrate was reduced for each of the MON-HT1, MON-HT13, MON-HT15, and MON-HT17 variants compared to the wild-type RdpA enzyme. An unexpected result was that enzymatic activity with MCPA as a substrate was roughly 6-fold greater for MON-HT1, and approximately 10-fold greater for MON-HT13, MON-HT15, and MON-HT17 compared to the wild-type RdpA enzyme."}},
  "note": "Where two headings read alike, the source gives them in different places.",
  "data": [
    {"molecule": "Wild-type RdpA: wild-type RdpA enzyme from Sphingobium herbicidovorans, SEQ ID NO:60 (protein, Sphingobium herbicidovorans) MHAALSPLSQRFERIAVQPLTGVLGAEITGVDLREPLDDSTWNEILDAFHTYQVIYFPGQAITNEQHIAFSRRFGPVDPVPLLKSIEGYPEVQMIRREANESGRVIGDDWHTDSTFLDAPPAAVVMRAIDVPEHGGDTGFLSMYTAWETLSPTMQATIEGLNVVHSATRVFGSLYQAQNRRFSNTSVKVMDVDAGDRETVHPLVVTHPGSGRKGLYVNQVYCQRIEGMTDAESKPLLQFLYEHATRFDFTCRVRWKKDQVLVWDNLCTMHRAVPDYAGKFRYLTRTTVGGVRPAR", "values": [
      {"measurement": "Melting temp, Buffer", "setting": "[1]; Table 11 series", "result": 43, "unit": "°C"},
      {"measurement": "Melting temp, Buffer plus Fe2+ and aKG", "setting": "[1]; Table 11 series", "result": 53, "unit": "°C"},
      {"measurement": "T1/2, temperature where 50% of the protein was unfolded, Buffer plus Fe2+ and aKG", "setting": "[1]; buffer", "result": 50, "unit": "°C"},
      {"measurement": "T1/2, temperature where 50% of the protein was unfolded, Buffer", "setting": "[1]; buffer, pH 7.5", "result": 42, "unit": "°C"},
      {"measurement": "Vmax Quizalofop", "setting": "[2]; 23° C., purified His-tagged protein, standard error in parenthetical", "result": "1.38 (−0.06) umol herbicide product mg enzyme-1 min-1"},
      {"measurement": "Km", "setting": "[2]; 23° C., purified His-tagged protein, standard error in parenthetical, read-out: Km Quizalofop", "result": 270, "unit": "µM"},
      {"measurement": "Vmax 2,4-D", "setting": "[2]; Table 10 series, unit as defined", "result": "0.25 (0.01) umol herbicide product mg enzyme-1 min-1"},
      {"measurement": "Km", "setting": "[2]; Table 10 series, unit as defined, read-out: Km 2,4-D", "result": 130, "unit": "µM"},
      {"measurement": "Vmax Quizalofop", "setting": "[2]; Table 10 series, 23° C., unit as defined", "result": "2.76 (0.11) umol herbicide product mg enzyme-1 min-1"},
      {"measurement": "Km", "setting": "[2]; Table 10 series, 23° C., unit as defined, read-out: Km Quizalofop", "result": 90, "unit": "µM"},
      {"measurement": "Vmax 2,4-D", "setting": "[2]; standard error in parenthetical, NDB = activity not robust enough for kinetic characterization", "result": "0.10 (−0.01) umol herbicide product mg enzyme-1 min-1"},
      {"measurement": "Km", "setting": "[2]; standard error in parenthetical, NDB = activity not robust enough for kinetic characterization, read-out: Km 2,4-D", "result": 30, "unit": "µM"},
      {"measurement": "activity of the wild-type enzyme at 46° C. and 47° C.", "setting": "[3]", "result": "completely inactive"},
      {"measurement": "inactivation of the wild-type enzyme at 42° C. and 41° C.", "setting": "[3]", "result": 90, "unit": "% inactive"},
      {"measurement": "maximum activity as a percentage of the wild-type enzyme's activity, Haloxyfop", "setting": "[4]; purified enzyme", "result": 100, "unit": "%"},
      {"measurement": "maximum activity as a percentage of the wild-type enzyme's activity, Dichlorprop", "setting": "[4]", "result": 100, "unit": "%"},
      {"measurement": "maximum activity as a percentage of the wild-type enzyme's activity, Fenoxaprop", "setting": "[4]", "result": 100, "unit": "%"},
      {"measurement": "maximum activity as a percentage of the wild-type enzyme's activity, Fluazifop", "setting": "[4]", "result": 100, "unit": "%"},
      {"measurement": "MCPA Km", "setting": "[5]", "result": 100, "unit": "%"},
      {"measurement": "MCPA Vmax", "setting": "[5]", "result": 100, "unit": "%"},
      {"measurement": "Mecoprop Km", "setting": "[5]", "result": 100, "unit": "%"},
      {"measurement": "Mecoprop Vmax", "setting": "[5]", "result": 100, "unit": "%"}
    ]}
  ]
}
